Assay results taken from the supplement of paper PMC11780869.

System: Bacillus subtilis
Assay: cleaved RNA product abundance (RNA/gDNA barcode ratio) relative to median wild-type variant (ratio to wild type); higher = more accumulation of the downstream cleavage product
Details: cleavage site: cggR-gapA (positions -7 to +36 mutated)
In short: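 Cleaved product abundance is expressed as the RNA:gDNA barcode ratio per construct, scaled to the median construct carrying the unmutated site. The constructs were barcoded, mutagenized RNase Y cleavage-site windows in truncated aprE or tetM reporter mRNAs integrated into the B. subtilis chromosome. Cultures grew in LB at 37°C from OD600 0.0003 to 0.3 before cleaved RNA was gel-selected and barcode-sequenced.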

[1] = experiment (reporter, strain, medium): exp 4a: truncated aprE reporter, strain BJT201 with 2% xylose (RNase J1 expressed)
[2] = experiment (reporter, strain, medium): exp 2b: truncated aprE reporter, strain BJT200

Sequence | cleaved RNA product abundance [1] | cleaved RNA product abundance [2] | cleaved RNA product abundance (experiment (reporter, strain, medium): exp 6: tetM reporter, strain 168)
ACAGACGAAGGAGCCGCAAATAAGTTATTATGGGATGAATAATCCCTCAATATAAATATCTCTCACTTATTTAAA | 0.365 |  | 
ACAGACGAAGGAGCCGCAAATAAGTTATTATGGGATGAATAATCCCTCTATATAAATATCTCTCACTTATTTAAA | 0.483 |  | 
ACAGACGAAGGAGCCGCAAATAAGTTATTCAGGGATGAATAATCCCTCAATATAAATATCTCTCACTTATTTAAA | 1.09 |  | 
ACAGACGAAGGAGCCGCAAATAAGTTATTTAGGGATGAATAATCCCTCAATATAAATATCTCTCACTTATTTAAA | 0.766 | 0.993 | 
ACAGACGAAGGAGCCGCAAATAAGTTCTTAAGGGATGAATAATCCCTCAATATAAATATCTCTCACTTATTTAAA | 0.258 | 0.148 | 
ACAGACGAAGGAGCCGCAAATAAGTTGTTAAGGGATGAATAATCCCTCAATATAAATATCTCTCACTTATTTAAA | 0.458 |  | 
ACAGACGAAGGAGCCGCAAATAAGTTTTTAAGGGATGAATAATCCCTCAATATAAATATCTCTCACTTATTTAAA | 0.402 | 0.29 | 
ACAGACGAAGGAGCCGCAAATAATTTATTAAGGGATGAATAATCCCTCAATATAAATATCTCTCACTTATTTAAA | 0.591 | 0.866 | 
ACAGACGAAGGAGCCGCAAATACGTTATTAAGGGATGAATAAACCCTCAATATAAATATCTCTCACTTATTTAAA | 0.383 |  | 
ACAGACGAAGGAGCCGCAAATACGTTATTAAGGGATGAATAATCCCTCAATATAAATATCTCTCACTTATTTAAA | 0.984 |  | 
ACAGACGAAGGAGCCGCAAATATGTTATTAAGGGATGAATAATCCCTCAATATAAATATCTCTCACTTATTTAAA | 1.1 |  | 
ACAGACGAAGGAGCCGCAAATGAGTTATTAAAGGATGAATAATCCCTCAATATAAATATCTCTCACTTATTTAAA |  | 0.181 | 
ACAGACGAAGGAGCCGCAAATGAGTTATTAAGGGATGAATAATCCCTCAATATAAATATCTCTCACTTATTTAAA | 1.15 |  | 
ACAGACGAAGGAGCCGCAAATTAGTTATTAAGGGATGAAAAATCCCTCAATATAAATATCTCTCACTTATTTAAA | 0.655 |  | 
ACAGACGAAGGAGCCGCAAATTAGTTATTAAGGGATGAATAATCCCTCAATATAAATATCTCTCACTTATTTAAA | 0.919 |  | 
ACAGACGAAGGAGCCGCAAATTAGTTATTAAGGGATGAATAATCCCTCTATATAAATATCTCTCACTTATTTAAA | 0.215 |  | 
ACAGACGAAGGAGCCGCAAATTAGTTATTAATGGATGAATAATCCCTCAATATAAATATCTCTCACTTATTTAAA | 0.153 |  | 
ACAGACGAAGGAGCCGCAACAAAGTTATTAAGGGATGAATAATCCCTCAATATAAATATCTCTCACTTATTTAAA | 0.8 |  | 
ACAGACGAAGGAGCCGCAACAAGTTATTAAGGGATGAATAATCCCTCAATATAAATATCTCTCACTTATTTAAAG | 0.581 |  | 
ACAGACGAAGGAGCCGCAACGAAATTATTAAGGGATGAATAATCCCTCAATATAAATATCTCTCACTTATTTAAA | 1.03 | 1.1 | 
ACAGACGAAGGAGCCGCAACGAAGTAATTAAGGGATGAATAATCCCTCAATATAAATATCTCTCACTTATTTAAA | 0.347 |  | 

Sequence | cleaved RNA product abundance [1] | cleaved RNA product abundance [2] | cleaved RNA product abundance (experiment (reporter, strain, medium): exp 6: tetM reporter, strain 168)
ACAGACGAAGGAGCCGCAACGAAGTTAATAAGGGATGAATAATCCCTCAATATAAATATCTCTCACTTATTTAAA |  | 0.227 | 
ACAGACGAAGGAGCCGCAACGAAGTTATAAAGGGATGAATAATCCCTCAATATAAATATCTCTCACTTATTTAAA | 0.54 |  | 
ACAGACGAAGGAGCCGCAACGAAGTTATTAAAGGATGAATAATCCCTCAATATAAATATCTCTCACTTATTTAAA | 0.213 |  | 
ACAGACGAAGGAGCCGCAACGAAGTTATTAACGGATGAATAATCCCTCAATATAAATATCTCTCACTTATTTAAA | 0.155 |  | 
ACAGACGAAGGAGCCGCAACGAAGTTATTAAGAGATGAATAATCCCTCAATATAAATATCTCTCACTTATTTAAA | 0.137 |  | 
ACAGACGAAGGAGCCGCAACGAAGTTATTAAGGAATAAATAATCCCTCAATATAAATATCTCTCACTTATTTAAA | 0.0859 |  | 
ACAGACGAAGGAGCCGCAACGAAGTTATTAAGGAATGAATAATCCCTCAATATAAATATCTCTCACTTATTTAAA | 0.126 | 0.116 | 
ACAGACGAAGGAGCCGCAACGAAGTTATTAAGGGAAGAATAATCCCTCAATATAAATATCTCTCACTTATTTAAA | 1.23 |  | 
ACAGACGAAGGAGCCGCAACGAAGTTATTAAGGGACGAATAATCCCTCAATATAAATATCTCTCACTTATTTAAA | 0.585 |  | 
ACAGACGAAGGAGCCGCAACGAAGTTATTAAGGGATAAATAATCCCTCAATATAAATATCTCTCACTTATTTAAA | 0.739 | 0.891 | 
ACAGACGAAGGAGCCGCAACGAAGTTATTAAGGGATGAACAATCCCTCAATATAAATATCTCTCACTTATTTAAA | 0.631 |  | 
ACAGACGAAGGAGCCGCAACGAAGTTATTAAGGGATGAATAAACCCTCAATATAAATATCTCTCACTTATTTAAA | 0.538 |  | 
ACAGACGAAGGAGCCGCAACGAAGTTATTAAGGGATGAATAATACCTCAATATAAATATCTCTCACTTATTTAAA | 0.18 | 0.111 | 
ACAGACGAAGGAGCCGCAACGAAGTTATTAAGGGATGAATAATCCCTCAAAATAAATATCTCTCACTTATTTAAA | 0.357 |  | 
ACAGACGAAGGAGCCGCAACGAAGTTATTAAGGGATGAATAATCCCTCAACATAAATATCTCTCACTTATTTAAA | 0.447 |  | 
ACAGACGAAGGAGCCGCAACGAAGTTATTAAGGGATGAATAATCCCTCAATATAAATAACTCTCACTTATTTAAA | 0.827 | 0.695 | 
ACAGACGAAGGAGCCGCAACGAAGTTATTAAGGGATGAATAATCCCTCAATATAAATATCTCTCACTTATTTAAA | 0.915 | 0.908 | 0.595
ACAGACGAAGGAGCCGCAACGAAGTTATTAAGGGATGAATAATCCCTCAATATAAATCTCTCTCACTTATTTAAA | 0.538 |  | 
ACAGACGAAGGAGCCGCAACGAAGTTATTAAGGGATGAATAATCCCTCAATATACATATCTCTCACTTATTTAAA | 0.706 |  | 
ACAGACGAAGGAGCCGCAACGAAGTTATTAAGGGATGAATAATCCCTCAATGTAAATATCTCTCACTTATTTAAA | 0.11 |  | 
ACAGACGAAGGAGCCGCAACGAAGTTATTAAGGGATGAATAATCCCTCACTATAAATATCTCTCACTTATTTAAA | 0.435 |  | 

Sequence | cleaved RNA product abundance [1] | cleaved RNA product abundance [2] | cleaved RNA product abundance (experiment (reporter, strain, medium): exp 6: tetM reporter, strain 168)
ACAGACGAAGGAGCCGCAACGAAGTTATTAAGGGATGAATAATCCTTCAATATAAATATCTCTCACTTATTTAAA | 0.448 |  | 
ACAGACGAAGGAGCCGCAACGAAGTTATTAAGGGATGAATAATCTCTCAATATAAATATCTCTCACTTATTTAAA | 0.684 |  | 
ACAGACGAAGGAGCCGCAACGAAGTTATTAAGGGATGAATACTCCCTCAATATAAATATCTCTCACTTATTTAAA | 0.55 |  | 
ACAGACGAAGGAGCCGCAACGAAGTTATTAAGGGATGAATTATCCCTCAATATAAATATCTCTCACTTATTTAAA | 0.91 |  | 
ACAGACGAAGGAGCCGCAACGAAGTTATTAAGGGATGTATAATCCCTCAATATAAATATCTCTCACTTATTTAAA | 0.656 |  | 
ACAGACGAAGGAGCCGCAACGAAGTTATTAAGGGTTGAATAATCCCTCAATATAAATATCTCTCACTTATTTAAA | 0.508 |  | 
ACAGACGAAGGAGCCGCAACGAAGTTATTAAGGTATGAATAATCCCTCAATATAAATATCTCTCACTTATTTAAA | 0.0862 |  | 
ACAGACGAAGGAGCCGCAACGAAGTTATTAAGTGATGAATAATCCCTCAATATAAATATCTCTCACTTATTTAAA | 0.13 | 0.0825 | 
ACAGACGAAGGAGCCGCAACGAAGTTATTAATGGATGAATAATCCCTCAATATAAATATCTCTCACTTATTTAAA | 0.141 |  | 
ACAGACGAAGGAGCCGCAACGAAGTTATTATGGGATGAATAATCCCTCAATATAAATATCTCTCACTTATTTAAA | 0.483 |  | 
ACAGACGAAGGAGCCGCAACGAATTTATTAAGGGATGAATAATCCCTCAATATAAATATCTCTCACTTATTTAAA | 1.15 | 0.738 | 
ACAGACGAAGGAGCCGCAACGATGTTATTAAGGGATGAATAATCCCTCAATATAAATATCTCTCACTTATTTAAA | 1.36 |  | 
ACAGACGAAGGAGCCGCAAGAAGTTATTAAGGGATGAATAATCCCTCAATATAAATATCTCTCACTTATTTAAAG | 0.931 | 1.27 | 
ACAGACGAAGGAGCCGCAAGAAGTTATTAAGGGATTAATAATCCCTCAATATAAATATCTCTCACTTATTTAAAG | 0.71 |  | 
ACAGACGAAGGAGCCGCAAGAAGTTATTAGGGGATGAATAATCCCTCAATATAAATATCTCTCACTTATTTAAAG | 0.817 |  | 
ACAGACGAAGGAGCCGCAAGGAAGCTATTAAGGGATGAATAATCCCTCAATATAAATATCTCTCACTTATTTAAA |  | 0.644 | 
ACAGACGAAGGAGCCGCAAGGAAGTAATTAAGGGATGAATAATCCATCAATATAAATATCTCTCACTTATTTAAA |  | 0.122 | 
ACAGACGAAGGAGCCGCAAGGAAGTAATTAAGGGATGAATAATCCCTCAATATAAATATCTCTCACTTATTTAAA | 0.182 |  | 
ACAGACGAAGGAGCCGCAAGGAAGTTATAAAGGGATGAATAATCCCTCAATATAAATATCTCTCACTTATTTAAA | 0.578 |  | 
ACAGACGAAGGAGCCGCAAGGAAGTTATCAAGGGATGAATAATCCCTCAATATAAATATCTCTCACTTATTTAAA | 0.347 | 0.271 | 
